Laboratory results taken from patent publication US20120295802A1 (published 2012).
Residue numbers refer to the chain shown, from its start. In names and notes the source's numbering stands. Square brackets hold non-standard residues; d marks the D form. Ends that are not written are not given here. * marks the point of attachment. Biotin = O=C1N[C@H]2[C@H](CS[C@H]2CCCCC(=O)*)N1; pS = N[C@@H](COP(=O)(O)O)C(=O)O

T1: endogenous BACH1 (full-length) of U2OS cells (Homo sapiens (Human), UniProt Q9BX63 1-1249)
T1 construct: Endogenous full-length protein in U2OS cell lysates, detected with a rabbit anti-BACH1 antibody; The phosphorylation state in the lysate was not measured; also called full-length BACH1; wild-type BACH1
T1 sequence: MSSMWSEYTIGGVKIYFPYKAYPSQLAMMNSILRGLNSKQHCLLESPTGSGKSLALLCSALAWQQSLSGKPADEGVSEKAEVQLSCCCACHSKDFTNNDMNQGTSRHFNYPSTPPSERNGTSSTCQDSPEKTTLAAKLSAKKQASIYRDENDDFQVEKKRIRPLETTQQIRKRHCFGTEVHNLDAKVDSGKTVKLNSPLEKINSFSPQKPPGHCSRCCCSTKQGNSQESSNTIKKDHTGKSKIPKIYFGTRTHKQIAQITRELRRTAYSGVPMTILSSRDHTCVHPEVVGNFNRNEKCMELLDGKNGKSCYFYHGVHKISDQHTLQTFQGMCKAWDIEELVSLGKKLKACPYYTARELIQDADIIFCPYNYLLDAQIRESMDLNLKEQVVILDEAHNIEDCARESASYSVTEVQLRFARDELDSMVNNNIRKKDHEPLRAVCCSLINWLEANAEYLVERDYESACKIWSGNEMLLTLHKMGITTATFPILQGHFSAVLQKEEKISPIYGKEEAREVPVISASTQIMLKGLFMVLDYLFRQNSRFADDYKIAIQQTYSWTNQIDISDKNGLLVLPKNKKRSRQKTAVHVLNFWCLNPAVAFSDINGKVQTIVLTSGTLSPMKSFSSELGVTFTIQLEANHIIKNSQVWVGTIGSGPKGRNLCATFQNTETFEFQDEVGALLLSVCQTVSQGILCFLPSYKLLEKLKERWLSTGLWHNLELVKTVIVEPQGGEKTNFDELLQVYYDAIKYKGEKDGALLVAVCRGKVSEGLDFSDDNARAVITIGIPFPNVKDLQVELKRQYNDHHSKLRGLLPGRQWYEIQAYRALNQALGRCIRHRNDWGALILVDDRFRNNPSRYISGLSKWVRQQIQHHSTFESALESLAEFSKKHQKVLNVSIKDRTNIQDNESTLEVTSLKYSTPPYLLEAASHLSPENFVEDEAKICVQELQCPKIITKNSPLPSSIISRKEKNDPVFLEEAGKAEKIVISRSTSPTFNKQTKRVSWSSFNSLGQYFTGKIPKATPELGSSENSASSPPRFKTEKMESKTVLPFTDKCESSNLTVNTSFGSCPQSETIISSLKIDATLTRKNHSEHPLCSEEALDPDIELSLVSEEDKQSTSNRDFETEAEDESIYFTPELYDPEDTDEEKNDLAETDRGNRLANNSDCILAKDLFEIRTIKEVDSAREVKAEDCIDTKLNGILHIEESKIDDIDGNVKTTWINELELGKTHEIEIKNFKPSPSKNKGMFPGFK

B1: optimal tandem BRCT domain-interacting phosphopeptide YDIpSQVFPF (peptide)
peptide: Biotin-YDI[pS]QVFPF
notes: Found by oriented peptide library screening; Conjugated to streptavidin-coated beads; also called phosphorylated biotinylated peptide
B2: myc-tagged BRCA1 tandem BRCT domain construct (residues 1313-1863) M1775R (other, not shown: small tags and cut ends)
chain: QDPFLIGSSKQMRHQSESQGVGLSDKELVSDDEERGTGLEENNQEEQSMDSNLGEAASGCESETSVSEDCSGLSSQSDILTTQQRDTMQHNLIKLQQEMAELEAVLEQHGSQPSNSYPSIISDSSALEDLRNPEQSTSEKAVLTSQKSSEYPISQNPEGLSADKFEVSADSSTSKNKEPGVERSSPSKCPSLDDRWYMHSCSGSLQNRNYPSQEELIKVVDVEEQQLEESGPHDLTETSYLPRQDLEGTPYLESGISLFSDDPESDPSEDRAPESARVGNIPSSTSALKVPQLKVAESAQSPAAAHTTDTAGYNAMEESVSREKPELTASTERVNKRMSMVVSGLTPEEFMLVYKFARKHHITLTNLITEETTHVVMKTDAEFVCERTLKYFLGIAGGKWVVSYFWVTQSIKERKMLNEHDFEVRGDVVNGRNHQGPKRARESQDRKIFRGLEICCYGPFTNRPTDQLEWMVQLCGASVVKELSSFTLGTGVHPIVVVQPDAWTEDNGFHAIGQMCEAPVVTREWVLDSVALYQCQELDTYLIPQIPHSHY
notes: also called M1775R cancer-associated mutant
B3: myc-tagged BRCA1 tandem BRCT domain construct (residues 1313-1863) P1749R (other, not shown: small tags and cut ends)
chain: B2 chain with P437R, R463M

Columns and labels:
[1] = target: T2, myc-tagged BRCA1 tandem BRCT domain construct (residues 1313-1863) S1655A/K1702M (human, UniProt P38398 1313-1863); test: pull-down of in vitro translated 35S-labelled protein on bead-immobilized peptide
T2 construct: also called K1702M/S1655A
Procedure: (§1) FIG. 3A is a schematic representation of protein-peptide contacts between a BRCA1 tandem BRCT domain and the BACH1 phosphopeptide. Hydrogen bonds, Van der Waals interactions and water molecules are denoted by dashed lines, crescents, and circles respectively. In FIG. 3B, the wild-type and mutant myc-tagged BRCA1 tandem BRCT domain constructs containing the indicated mutations were analysed for binding to a bead-immobilized optimal tandem BRCT domain-interacting phosphopeptide, YDIpSQVFPF, or its non-phosphorylated counterpart. […] In FIG. 3C, U2OS cells transfected with wild-type and mutant myc-tagged BRCA 1 tandem BRCT domain constructs were analysed for association with endogenous BACH1.
(§2) An optimal phosphopeptide for binding the BRCA1 BRCTs was determined by oriented peptide library screening as described previously. This peptide was synthesized in both its phosphorylated and non-phosphorylated form with a biotin group at the N-terminus using N-α-FMOC-protected amino acids and standard BOP/HOBt coupling chemistry. These peptides were conjugated to streptavidin coated beads (Sigma-Aldrich). […] The bead-immobilized peptides (10 μL of beads) were added to 10 μL of the in vitro translated [³⁵S]-labeled protein pool in 150 μL binding buffer (50 mM Tris-HCl (pH7.6), 150 mM NaCl, 0.5% NP-40, 1 mM EDTA, 2 mM DTT, 8 μg/mL pepstatin, 8 μg mL⁻¹ aprotinin, 8 μg mL⁻¹ leupeptin, 800 μM Na3VO4, 25 mM NaF).

[2] = target: myc-tagged BRCA1 tandem BRCT domain construct (residues 1313-1863) G1738E (human, UniProt P38398 1313-1863); test: as above
Procedure: as §1, §2

[3] = target: B2; test: as above
Procedure: as §1, §2

[4] = target: T3, myc-tagged BRCA1 tandem BRCT domain construct (residues 1313-1863) mutated at Ser1655 alone (human, UniProt P38398 1313-1863); test: as above
T3 construct: also called Ser1655 mutant; S1655A
Procedure: as §1, §2

[5] = target: T4, myc-tagged BRCA1 tandem BRCT domain construct (from residue 1313) Y1853X (human, UniProt P38398 1313-1852); test: as above
T4 construct: Stop at Tyr1853; also called Y1853X (truncates the last 11 residues)
Procedure: as §1, §2

[6] = target: T5, myc-tagged BRCA1 tandem BRCT domain construct (residues 1313-1863) mutated at Lys1702 alone (human, UniProt P38398 1313-1863); test: as above
T5 construct: also called Lys1702 mutant; K1702M
Procedure: as §1, §2

[7] = target: B3; test: as above
Procedure: as §1, §2

[8] = target: T1, endogenous BACH1 (full-length) of U2OS …; test: co-immunoprecipitation from transfected U2OS cells (anti-myc IP, anti-BACH1 blot)

Measured: binding result

B1
not listed: [8]
no binding: all other assays above

B2
no binding: [8]

B3
no binding: [8]
